In one experiment the target is T1, CEA (UniProt P06731 35-685, limits assumed).
T1 construct: also called immobilized CEA; carcinoembryonic antigen
T1 sequence (looked up): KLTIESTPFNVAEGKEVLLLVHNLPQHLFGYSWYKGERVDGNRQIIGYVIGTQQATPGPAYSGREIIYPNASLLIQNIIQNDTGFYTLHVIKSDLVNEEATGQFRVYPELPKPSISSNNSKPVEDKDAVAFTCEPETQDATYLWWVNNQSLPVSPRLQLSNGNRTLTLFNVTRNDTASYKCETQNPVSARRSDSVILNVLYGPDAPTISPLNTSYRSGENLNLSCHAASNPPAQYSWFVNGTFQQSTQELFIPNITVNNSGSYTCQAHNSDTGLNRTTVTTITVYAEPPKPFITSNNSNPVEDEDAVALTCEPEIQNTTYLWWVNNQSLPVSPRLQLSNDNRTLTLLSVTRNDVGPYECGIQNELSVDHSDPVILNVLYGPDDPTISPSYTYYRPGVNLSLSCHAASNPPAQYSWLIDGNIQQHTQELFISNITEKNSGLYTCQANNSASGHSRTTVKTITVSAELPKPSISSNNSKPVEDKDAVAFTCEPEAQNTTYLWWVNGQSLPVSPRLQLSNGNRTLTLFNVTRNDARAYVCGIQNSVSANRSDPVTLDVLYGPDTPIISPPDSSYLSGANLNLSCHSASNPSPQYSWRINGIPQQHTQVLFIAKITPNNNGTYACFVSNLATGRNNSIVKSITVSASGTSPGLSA
The experiment can be described thus: ELISA on immobilized CEA. The source says: Bound antibodies were detected with an HRP-conjugated anti-His-tag antibody.
A bispecific single-chain diabody (scDb)-EHD2 fusion protein was generated by fusing a scDb directed against CEA and human CD3 to the N-terminus of the EHD2 (FIG. 27a, b). The construct was cloned into mammalian expression vector pSecTagA and produced in stably transfected HEK293 cells. Protein was purified from the cell culture supernatant by immobilized metal affinity chromatography.
On the technique in general: In an ELISA, binding on a coated surface is turned into a signal by an enzyme label.

The target of a further experiment is T2, EGFR-Fc fusion protein (UniProt P00533 25-645, limits assumed).
T2 construct: extracellular domain; also called Fc fusion protein of the extracellular region of EGFR; immobilized EGFR; not shown: Fc part
The experiment can be described thus: ELISA on immobilized EGFR-Fc.

For another experiment, the target named is T3, HER2-Fc fusion protein (UniProt P04626 23-652, limits assumed).
T3 construct: extracellular domain; also called Fc fusion protein of the extracellular region of HER2; not shown: Fc part
The experiment in a line: ELISA on immobilized HER2-Fc.

Experiment [1] concerns the target T4, recombinant TRAIL-R1 (receptor-Fc fusion protein) (UniProt O00220 24-239, limits assumed).
T4 construct: also called TRAIL receptor 1; not shown: Fc part
The experiment can be described thus: ELISA on recombinant receptor-Fc.

Experiment [2] has as its target T5, TNFR2-Fc fusion protein (Enbrel) (UniProt P20333 23-257).
T5 construct: Commercial product Enbrel, coated at 1 ug/ml; not shown: Fc part of Enbrel
T5 sequence (looked up): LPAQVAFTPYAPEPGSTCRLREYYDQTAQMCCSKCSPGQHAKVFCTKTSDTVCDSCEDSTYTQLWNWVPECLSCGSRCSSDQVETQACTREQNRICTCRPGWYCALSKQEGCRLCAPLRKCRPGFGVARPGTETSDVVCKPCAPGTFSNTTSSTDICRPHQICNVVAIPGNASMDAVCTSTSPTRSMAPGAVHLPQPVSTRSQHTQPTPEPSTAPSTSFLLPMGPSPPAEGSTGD
The experiment can be described thus: ELISA on coated TNFR2-Fc (Enbrel). The procedure: FIG. 36: a-c) Purified TNF variants (a: MHD2-scTNFR2, b: EHD2-scTNFR2 with a 16 aa linker between EHD2 and scTNFR2 as well as c: EHD2-scTNFR2 with a 28 aa linker between EHD2 and scTNFR2) were analyzed by 8% SDS-PAGE under reducing (+2-ME) or non-reducing (−2-ME) conditions and stained with Coomassie. d) Binding studies with TNFR2-Fc fusion protein. Plates were coated with 1 μg/ml TNFR2-Fc fusion protein (Enbrel). TNF fusion proteins were incubated for 1 h at RT and bound TNF fusion proteins were detected using HRP-conjugated anti-TNF antibodies and TMB substrate (n=2).

B1: Anti-CEA scFv-EHD2 (scFv)
chain: DAAQPAMAQVKLQQSGAELVRSGTSVKLSCTASGFNIKDSYMHWLRQGPEQGLEWIGWIDPENGDTEYAPKFQGKATFTTDTSSNTAYLQLSSLTSEDTAVYYCNEGTPTGPYYFDYWGQGTTVTVSSGGGGSGGGGSGGGGSDIELTQSPAIMSASPGEKVTITCSASSSVSYMHWFQQKPGTSPKLWIYSTSNLASGVPARFSGSGSGTSYSLTISRMEAEDAATYYCQQRSSYPLTFGAGTKLELKRGSLGGSGGDFTPPTVKILQSSCDGGGHFPPTIQLLCLVSGYTPGTINITWLEDGQVMDVDLSTASTTQEGELASTQSELTLSQKHWLSDRTYTCQVTYQGHTFEDSTKKCADSNGGGSGGGTGSEFAAAHHHHHH
notes: Bivalent homodimer, His6; also called scFv-EHD2 fusion protein directed against CEA
Turning to B1, in the experiment with CEA, the binding result is reported as “binds”.

B2: Anti-CEAxCD3 scDb-EHD2 (bispecific antibody)
chain: DAAQPAMAQVKLQQSGAELVRSGTSVKLSCTASGFNIKDSYMHWLRQGPEQGLEWIGWIDPENGDTEYAPKFQGKATFTTDTSSNTAYLQLSSLTSEDTAVYYCNEGTPTGPYYFDYWGQGTTVTVSSGGGGSDIQMTQSPSSLSASVGDRVTITCRASQDIRNYLNWYQQKPGKAPKLLIYYTSRLESGVPSRFSGSGSGTDYTLTISSLQPEDFATYYCQQGNTLPWTFGQGTKVEIKRGGGGSGGRASGGGGSEVQLVESGGGLVQPGGSLRLSCAASGYSFTGYTMNWVRQAPGKGLEWVALINPYKGVSTYNQKFKDRFTISVDKSKNTAYLQMNSLRAEDTAVYYCARSGYYGDSDWYFDVWGQGTLVTVSSGGGGSDIELTQSPAIMSASPGEKVTITCSASSSVSYMHWFQQKPGTSPKLWIYSTSNLASGVPARFSGSGSGTSYSLTISRMEAEDAATYYCQQRSSYPLTFGAGTKLELKRGSLGGSGGDFTPPTVKILQSSCDGGGHFPPTIQLLCLVSGYTPGTINITWLEDGQVMDVDLSTASTTQEGELASTQSELTLSQKHWLSDRTYTCQVTYQGHTFEDSTKKCADSNGGGSGGGTGSEFAAAHHHHHH
notes: Homodimer: scDb against CEA and human CD3 at the N-terminus of EHD2, His6; also called bispecific single-chain diabody (scDb)-EHD2 fusion protein
On to B2, for which the binding result with CEA is given as “binds”.

B3: EHD2-scTRAIL (ligand)
chain: DYKDDDDKGGGGSAAQPADFTPPTVKILQSSCDGGGHFPPTIQLLCLVSGYTPGTINITWLEDGQVMDVDLSTASTTQEGELASTQSELTLSQKHWLSDRTYTCQVTYQGHTFEDSTKKCADSNGGSGGEFTRGTSEETISTVQEKQQNISPLVRERGPQRVAAHITGTRGRSNTLSSPNSKNEKALGRKINSWESSRSGHSFLSNLHLRNGELVIHEKGFYYIYSQTYFRFQEEIKENTKNDKQMVQYIYKYTSYPDPILLMKSARNSCWSKDAEYGLYSIYQGGIFELKENDRIFVSVTNEHLIDMDHEASFFGAFLVGGGGSGGGSTSEETISTVQEKQQNISPLVRERGPQRVAAHITGTRGRSNTLSSPNSKNEKALGRKINSWESSRSGHSFLSNLHLRNGELVIHEKGFYYIYSQTYFRFQEEIKENTKNDKQMVQYIYKYTSYPDPILLMKSARNSCWSKDAEYGLYSIYQGGIFELKENDRIFVSVTNEHLIDMDHEASFFGAFLVGGGGSGGGSTSEETISTVQEKQQNISPLVRERGPQRVAAHITGTRGRSNTLSSPNSKNEKALGRKINSWESSRSGHSFLSNLHLRNGELVIHEKGFYYIYSQTYFRFQEEIKENTKNDKQMVQYIYKYTSYPDPILLMKSARNSCWSKDAEYGLYSIYQGGIFELKENDRIFVSVTNEHLIDMDHEASFFGAFLVG
notes: Bivalent homodimer of single-chain TRAIL at the C-terminus of EHD2, FLAG-tagged
In the case of B3, the binding result with EGFR-Fc fusion protein is “no binding”; with HER2-Fc fusion protein, “no binding”; in experiment [1] it was “binds”.

B4: EHD2-scTNFR2-L16aa (ligand)
chain: DAAQPAGGGAAAHHHHHHGGTGGGGSGGKLGGSGGDFTPPTVKILQSSCDGGGHFPPTIQLLCLVSGYTPGTINITWLEDGQVMDVDLSTASTTQEGELASTQSELTLSQKHWLSDRTYTCQVTYQGHTFEDSTKKCADSNGGGSGGGTGSEFLASSRTPSDKPVAHVVANPQAEGQLQWLNRRANALLANGVELRDNQLVVPSEGLYLIYSQVLFKGQGCPSTHVLLTHTISRIAVSYQTKVNLLSAIKSPCQRETPEGAEAKPWYEPIYLGGVFQLEKGDRLSAEINRPDYLNFRESGQVYFGIIALGGGGSSSRTPSDKPVAHVVANPQAEGQLQWLNRRANALLANGVELRDNQLVVPSEGLYLIYSQVLFKGQGCPSTHVLLTHTISRIAVSYQTKVNLLSAIKSPCQRETPEGAEAKPWYEPIYLGGVFQLEKGDRLSAEINRPDYLNFRESGQVYFGIIALGGGGSSSRTPSDKPVAHVVANPQAEGQLQWLNRRANALLANGVELRDNQLVVPSEGLYLIYSQVLFKGQGCPSTHVLLTHTISRIAVSYQTKVNLLSAIKSPCQRETPEGAEAKPWYEPIYLGGVFQLEKGDRLSAEINRPDYLNFRESGQVYFGIIAL
notes: Dimer of the TNFR2-selective single-chain TNF mutant (D143N/A145R) fused to EHD2, 16 aa linker; also called EHD2-scTNFR2 with a 16 aa linker between EHD2 and scTNFR2
Take B4: the binding result in experiment [2] was “binds”.

B5: EHD2-scTNFR2-L28aa (ligand)
chain: DAAQPAGGGAAAHHHHHHGGTGGGGSGGKLGGSGGDFTPPTVKILQSSCDGGGHFPPTIQLLCLVSGYTPGTINITWLEDGQVMDVDLSTASTTQEGELASTQSELTLSQKHWLSDRTYTCQVTYQGHTFEDSTKKCADSNGGGSGGGSGGGSGGGSGGGSGGSEFLASSRTPSDKPVAHVVANPQAEGQLQWLNRRANALLANGVELRDNQLVVPSEGLYLIYSQVLFKGQGCPSTHVLLTHTISRIAVSYQTKVNLLSAIKSPCQRETPEGAEAKPWYEPIYLGGVFQLEKGDRLSAEINRPDYLNFRESGQVYFGIIALGGGGSSSRTPSDKPVAHVVANPQAEGQLQWLNRRANALLANGVELRDNQLVVPSEGLYLIYSQVLFKGQGCPSTHVLLTHTISRIAVSYQTKVNLLSAIKSPCQRETPEGAEAKPWYEPIYLGGVFQLEKGDRLSAEINRPDYLNFRESGQVYFGIIALGGGGSSSRTPSDKPVAHVVANPQAEGQLQWLNRRANALLANGVELRDNQLVVPSEGLYLIYSQVLFKGQGCPSTHVLLTHTISRIAVSYQTKVNLLSAIKSPCQRETPEGAEAKPWYEPIYLGGVFQLEKGDRLSAEINRPDYLNFRESGQVYFGIIAL
notes: Dimer of the TNFR2-selective single-chain TNF mutant (D143N/A145R) fused to EHD2, 28 aa linker; also called EHD2-scTNFR2 with a 28 aa linker between EHD2 and scTNFR2
For B5, the binding result in experiment [2] was “binds”.

B6: MHD2-scTNFR2 (ligand)
chain: DAAQPAGGGAAAHHHHHHGGTGGGGSGGKLGGSGGAELPPKVSVFVPPRDGFFGNPRKSKLICQATGFSPRQIQVSWLREGKQVGSGVTTDQVQAEAKESGPTTYKVTSTLTIKESDWLGQSMFTCRVDHRGLTFQQNASSMCVPDGGGSGGGTGSEFLASSRTPSDKPVAHVVANPQAEGQLQWLNRRANALLANGVELRDNQLVVPSEGLYLIYSQVLFKGQGCPSTHVLLTHTISRIAVSYQTKVNLLSAIKSPCQRETPEGAEAKPWYEPIYLGGVFQLEKGDRLSAEINRPDYLNFRESGQVYFGIIALGGGGSSSRTPSDKPVAHVVANPQAEGQLQWLNRRANALLANGVELRDNQLVVPSEGLYLIYSQVLFKGQGCPSTHVLLTHTISRIAVSYQTKVNLLSAIKSPCQRETPEGAEAKPWYEPIYLGGVFQLEKGDRLSAEINRPDYLNFRESGQVYFGIIALGGGGSSSRTPSDKPVAHVVANPQAEGQLQWLNRRANALLANGVELRDNQLVVPSEGLYLIYSQVLFKGQGCPSTHVLLTHTISRIAVSYQTKVNLLSAIKSPCQRETPEGAEAKPWYEPIYLGGVFQLEKGDRLSAEINRPDYLNFRESGQVYFGIIAL
Consider B6, for which the binding result in experiment [2] was “binds”.

The values above are taken from patent US20170327594A1 (UNIVERSIT T STUTTGART, published 2017).
